Drawing on a protein production outcome set (Wang et al. 2014), this text covers protein production for 17 sequences.

The nature of the data set: label from the status in PepcDB records.
Regarding “MANSTESGSLQSSSTVKVRSHYRPNNGTGSPGGRPRPKRGFLPLGKGLVWGGLVTLTATVAAIAGVGIGFFTPGPKGLVQQVIPGQSAGVEAGQADLFPYHISRPVNILVMGIDRVEPTEEEPNVDEFGGRSDTMLLVRFDPRENGLKLLSIPRDTRVFIPDVGYTKINDANAYGGPQLAARVINRNLGEVPIDRYVRVTTDALQELVDLVGGVEVFVPRPMFYEDKTQQLLIDLPAGLQTLNGQQAEQFVRFRYDANGDIGRVQRQETLLKALQNRLSHPSMITRIPKAIGIMQKTVDTNLTMEEILALVNFGRQLDRQEVQMVMLPGRFSQPAEFDGRSYWVMSDVGKRQVLRNYFDVIEEVPTWAETPGRSPESLRIALQNATDDPQALERVKEYLQSKDFRNFYETSESPQLLAETKILVQRGDLDGAHYLRQTLGGGVVEASSVGDLGSDLTIQVGMDLDQWLKESTPVDDSTPQF”, the protein production result is “failed”.

Take “MTPHPARSKISPYRDIEIFMDLEDWSARLKVFADATRVRLLALLEQEELTVAELSAITRLAQPRVSTHLAKLKEAGLVRDRRAGVSAYYRFDEVSLDPAQRALWLALSTGSDDPLLRQDAERVAAVLANRAADQNWADSVAGDMERHYSPGRTWEALARTALPLLETGDVLDIASGDGVLAELVAPHATRYICIDTSARVVAAASERLRKLRNVEVREGDMHALPFPDASFDLVVLMHALTYAAKPAQAVAESARVLRPGGRLLLCSLAKHEHRAAVQAYGHVNLGFAAKELRKFVEKAGLDVSNLESVTREKRPPHFEVISLIAMKPGIGNRESGLVEGKSNASRRANA”: the protein production result was “failed”. For “MGHHHHHHSHRPESFFQQSFQRLSRLGHGSYGEVFKVRSKEDGRLYAVKRSMSPFRGPKDRARKLAEVGSHEKVGQHPCCVRLEQAWEEGGILYLQTELCGPSLQQHCEAWGASLPEAQVWGYLRDTLLALAHLHSQGLVHLDVKPANIFLGPRGRCKLGDFGLLVELGTAGAGEVQEGDPRYMAPELLQGSYGTAADVFSLGLTILEVACNMELPHGGEGWQQLRQGYLPPEFTAGLSSELRSVLVMMLEPDPKLRATAEALLALPVLRQPRAWGVLWCMAAEALSRG” the value was “failed”; for “ADAQLIGHTNPSGEITFGEETFTIAQALDTLERDYREVYPLNVTTADVEALPDFATALPKADTDSEEANASAGDKAVHVLLPVFPGTNSEYDMAEAFEAAGATTEFHIIRNLNSEMLAADTEAFITKLQSANILAFSGGFSLGDEPDGSAKFMAAFLRSDTVAAAIKDFVARDGLVLGICNGFQALVKSGFLPYGDPAKMSAESPTLAHNRQLRHVSRIATTRVSSVASPWLSTFTPGQQHLMPVSHGEGRFVVSEKEAQALFSAGQVAFQYVDAEGTPTMEAPANPNGSNYAIEGIISPDGRILGKMGHPERFRDGLMRNIPGMEIQDIFANAVNYCRKSQR”, “failed”; for “SWKQAVRPCLRLPNFRFDWTSFNVLSAQKRWVKSFSTAVSIKEDPFWSAPLKKVLENHPETQYAYPDSTTVLECARGLVRDDLSSVLVFENVQDKLRWIGIFSERDIVRKVASQGLPLEKTQLKKAYTTRDRVETITVDKTVQDVVDILVSKDVQNIAVLYQKKHGDAFREDCYGVLTSRDLSTFFLSIPENDRSFFEQQTVKDVLESKGLDRSGDNTVYQIHQSVSVDEAIQKMDDHKVGTLLVTQSGK”, “failed”. For “MALKYPSGKEYRGNKPNAARRPAADYANRGMTLEDDLNATNEYYRERGIAVIHKKPTPVQIVRVDYPKRSAAVITEAYFRQASTTDYNGVYRGKYIDFEAKETKNKTAFPLKNFHAHQIRHMEQVVAHGGICFAILRFSLLNETYLLDASHLIAWWNKQEAGGRKSIPKQEIERHGHSIPLGYQPRIDYISVVDNVYFTR” the value was “not failed”; for “MIIRQGFKFRLEASDTQGARLRVLCGHARFVWNQALAKCHEAADAEGEYVPRYETMAKWVTAWKREPDTEWLKEAYTDNLQQKLKDLDTGWQRYFKKVEGAQRPRFKKKGKSRDSVRFVNFQKYCKIDNRRVKLPAGLGWVRFRKSREIVGAIKNCTVGFEGGRWFISFQTEREVSEPAHPSASMIGVDMGVARFLTLSDGTFIEPVSAFKVNQGNLARAQRALARKVKFSANWQKQKAKINRLHSRIANLRRDTLHKASTQISNNHAMIVIEDLKVGNMSRSAKGDVDNPGVNVKAKSGLNRSILDQGWYEFRRQLEYKQAFRGGGVLAVPAHHTSQTCPECQHVSPDNRTSQARFECVKCGFKENADLVGAINIQARGHRVLACGEFGLPDSVKQEPVRNREEVAPSAAHAALGIPHRRC”, “failed”; for “MPYMTTDAKEVSGKSFDYIVVGGGTAGCSLAATLSEKYSVLVIERGGSPFGDPLVEERKYFGYSLLNTDEYSSVAQSFTSVDGIENYRGRVLGGSSAINGGFYSRASDEFVKKAGWDKGLVQESYKWVESKVVFMPELTQWQSVVQFGFLEAGFYPYNGYSLEHTQGTKIGGSIYDQCGKRHTSADLLGFGKPNCITVLLNTTVKSIIFDSSNKTRAVGVRFMESDGNSSKSYKVHVEQHRGEVILAAGALGSPQILLLSGIGPENHLKDFDIPVIVNLKEVGRKMSDNPAISLLVDRFSQNRTLEPPQVAAIAEGYKFILESEVLPTDITTTRISIAAKIAFPKSKGRLKLNSTNPRENPSVKFNYLENKADLDACLEMVLHLQHVARSETVTFFLGTQAHDKLVAGDEELKSFCIKNVRTYYHYHGGCVVGSVVDEEYKVNGVKRLRVVDGSTFEESPGTNPMATVLMLGRYQGIKILKEREEQEDTFLSPQGSPQPQP”, “failed”. Turning to “MLLHGTNRSLRTGLRARGRGSTGARGTLAVSHAAGPSSHSLTLHSCALLPYTLHAHAFFPCAQTNMASSKKAIYAAILGNFAIAVTKFLGAAVSGSSAMLAEGIHSLVDTGNGGLLLLGLRRSKRPPDENHPYGYGKSLYFYTLVVAVLIFGLGGGISLYEGILHTLDPGHGGASTASVLGVTVGGLMLNTVVLGAAIVFEGLALRTALQEFKKQRGDTPFFEAIVTSKDPTTFTVVFEDTAALAGLVVALVGIHLASLLHMPVIDGIASIIIGLILCGVAAFLIWESKKLLIGEAAAPEIRDDIRRMAHDDADIASVERLLTMHMGPRALLLNMDLRFRDDLDANTVEAAVDRLERAIRKAHPSIRYIFVEAGSIARTRASDSGASAAGGPPS”, the protein production result is “failed”. For “MAKKVAVLAVNPVNGCGLFQYLEAFFENGISYKVFAVSDTKEIKTNSGMVLIVDDVIANLKGHEDEFDALVFSCGDAVPVFQQYANQPYNVDLMEVIKTFGEKGKMMIGHCAGAMMFDFTGITKGKKVAVHPLAKPAIQNGIATDEKSEIDGNFFTAQDENTIWTMLPKVIEALK” the value was “not failed”; for “MKILVDENMPYARELFSRLGEVKAVPGRPIPVEELNHADALMVRSVTKVNESLLSGTPINFVGTATAGTDHVDEAWLKQAGIGFSAAPGCNAIAVVEYVFSALLMLAERDGFSLRDRTIGIVGVGNVGSRLQTRLEALGIRTLLCDPPRAARGDEGDFRTLDELVQEADVLTFHTPLYKDGPYKTLHLADETLIRRLKPGAILINACRGPVVDNAALLARLNAGQPLSVVLDVWEGEPDLNVALLEAVDIGTSHIAGYTLEGKARGTTQVFEAYSAFIGREQRVALETLLPAPEFGRITLHGPLDQPTLKRLAHLVYDVRRDDAPLRKVAGIPGEFDKLRKNYLERREWSSLYVMCDDETAAALLCKLGFNAVHHPAH”, “not failed”. For “MYLKELSMMPGVSGDEGKVRDFIKSKIEGLVDNLYTDVLGNLIALKRGRDSSKKLLVSAHMDEVGFVVSKIEKDGKVSFLPVGGVDPRILPGKVVQVKNLKGVIGYRPIHLQRDEENTPPRFENLRIDFGFSSADEAKKYVSIGDYVSFVSDYIEKNGRAVGKAFDDRAGCSVLIDVLESGVSPAYDTYFVFTVQEETGLRGSAVVVEQLKPTCAIVVETTTAGDNPELEERKWATHLGDGPAITFYHRGYVIPKEIFQTIVDTAKNNDIPFQMKRRTAGGTDAGRYARTAYGVPAGVISTPARYIHSPNSIIDLNDYENTKKLIKVLVEEGKIVEVVS” the value was “not failed”; for “MAVAQADPGSDPAGGARFFCTAGRGLEPFLMREVRARLEATQVEYISGKVFFTTCSDLPSMKKLKSAERLFVLIKKQLPIAVSSLHKGKILNEMQRFVNDDPGSWLEAISLWKKLLEHDPKREKVSQRDANPLKRKAGENETIIAKKLKVEEKQEVAKDHGESQEDKLLQGSPEQGEAVTRTELQDHRLNSTTEKAADAQDQEDLTFRVSCRCTGNVRKVITGQEAGRVIGLALMRQFGWKADLRNPNIEIFMHLSDAYSVVGIPLLRMPLASRTYIQTAGLRSTIAWAMASIAEIKAGALVLDPMCGLGTILVEAAEEWPDVFYMGADMSDAQLLGACDNLKAAGLTDRIELLKSSVTDLPLPSQSTDVIISDIPFGKKFKLGKDIKSILQEMERVLRVGGAMVLLLSEDHHRHLTDCGGSSIPLTSKGHIAEPEMKTLSNPDRTGAPDTASPSQRASSVQCLGRMRPCGSLVPVESFKVSLGKTDAFICKYKKAQASGLSSAECHEPGAHTEMAAMQESPSLQDSL”, “failed”; for “MSALVSMNGNNGSTATSARIAAKKPISILVLGVDQGLEGRNDKGNSDTIILVTVNPTTKKATMTSIPRDTLTEILGETSNTSYYMFKVNSAYQFGGSSGSIKTVSAMLNVPINYYVEVNMKALESLVNALGGVDVNVPFSFSYDWCDFKKGKQHLDGRYAIAYARMRYDDPRGDYGRQLRQRQIIQAVVKKGLSVNGLANYQKLLKVFAKYVKTNLTFGDMTSLAINYRSAASNISSGYIQGHDATISGTSLQIASTEELQKWSNKLRKSLGLSPQTLTNQETRQNSLNETYNGVDFSSNETITNYTIYEANSITPRSSDSWLEHHHHHH”, “not failed”. Take “MVGLADVAVLYSGGKDSNYALYWALKSGLRVRYLVSMVSENEESYMYHTPNVELTSLQARALGIPIIKGFTKGEKEKEVEDLKNVLEGLKVDGIVAGALASRYQKERIENVARELGLKVYTPAWEKDPYQYMLEIIKLGFKVVFVAVSAYGLNESWLGRELNYKNLEELKKLSEKYGIHIAGEGGEFETFVLDMPFFKAKIVIDDAEKFWDGLSGKFIIKRAHLEWK”: the protein production result is on record as “not failed”.

For “SAAVKDSCGKGEMATGNGRRLHLGIPEAVFVEDVDSFMKQPGNETADTVLKKLDEQYQKYKFMELNLAQKKGRLKGQIPEIKQTLEILKYMQKKKESTNSMETRFLLADNLYCKASVPPTDKVCLWLGANVMLEYDIDEAQALLEKNLSTATKNLDSLEEDLDFLRDQFTTTEVNMARVYNWDVKRRNKDDSTKNKA”, the protein production result is on record as “not failed”. For “MMFHEGTNVAGNAELIPIRLFGTPRCEAVRDAFFPSKGFALTAALILAPNQSLSRQYAASLLWENVEQKRALGNLRQLILRLQKLPSEDDAILLTEGNDLKAGALAQRTDLAIFLAGARAEDPMRRLNALLEFGGDLLEGLEAGQDHLYLWLLSERRRLKDLFFSSYTQLLEELTRFGRASSNDIARLAECACKIEPEREETYRAAMAAYARVGNISACEGMYQLLMEQLRQEDRSPEAETVALKRRIQSLAATIAGPVEPEEGSRRQVLAKPRVAFVRPARVDGQPVPTVIHAFVEDVANSLVRYRTFTVLSPHSTFALAHDRVDDSYAMLRADYRIISTVFDDSRMSVALIEDASGEIVWSLEAVLTERHIHAAFRLLSKQVAAALAREIERLQVEPDRNHSGEAYRQLLEGQQLLRGKCDLPLLRRARSLFRKAVDLDHSLAVARARVAQSLQLEWLMLGGNDPHLLHRAKAEADASVEIDPALGVGHWMCAVVALYQRDFDISAEKFFEAEALAPNSADLLLQHADALAHFGDAEIAWDKFQQAINLNPLAPDIYWWAGASIAFKRQDYGTAVELCGRMENDEPALRVLTASHALHGDLLAARESGSRLQENYPGMTAREISSLSPDRDPIANERFYHALRLAGIK” the value was “failed”.
